Test results from patent US20220251194A1 (Merck Sharp & Dohme, published 2022).

Experiments:
[1] = target: T1, recombinant human or cyno PD-1 (immobilized onto CM5 chip, Example 1) (human or cyno ( which was …, UniProt Q15116 25-167, limits assumed)); test: SPR (Biacore T200), PD-1 immobilized on CM5 chip, Fab as analyte; lower end of the printed range 2.80-2.90
T1 construct: also called antigen
Method: (§1) Immobilization of recombinant human or cyno PD-1 onto CM5 chip: A CM5 sensor chip was activated in FC2 by 7-min. injection (10 μl/min.) of freshly prepared 1:1 50 mM NHS: 200 mM EDC. PD-1 at a concentration of 0.2 μg/ml in 10 mM sodium acetate buffer pH 5.0 was injected onto the activated chip at 5 μl/min. (HBS-EP running buffer: 10 mM HEPES, 150 mM NaCl, 3.4 mM EDTA, 0.005% surfactant P20, pH 7.4) for 120 seconds. The remaining active coupling sites were blocked with 7 min. injection of 1M ethanolamine at 10 μl/min.
(§2) Binding kinetics measurement: Various concentrations of the Fabs were injected with a flow rate of 30 μl/min for 180 seconds(s) during the association phase. The dissociation of bound antibody was monitored by flowing HBS-EP buffer over the chip surface for 600 seconds. At the end of each cycle, the sensor surfaces were regenerated by injecting regeneration buffer (10 mM glycine buffer with pH 1.7) for 180 seconds. After sensograms were corrected for signals from a reference flow, kinetics were calculated with BIACORE T 200 evaluation software ver.1.0 (Biacore, GE, USA).

[2] = target: T1, recombinant human or cyno PD-1 …; test: SPR (Biacore), Fab against PD-1
Method: as §1, §2

[3] = target: T2, human PD1 on PathHunter U2OS dimer cells (human, UniProt Q15116 25-288); test: PathHunter dimerization assay, U2OS cells co-expressing human PD1 and LAG3; the signal needs both targets to be bound on the same cell
T2 construct: whole, on cells; On Human PD1/LAG3 dimer cell Clone #9 (Lot 56AUA) and Human PD1/TIGIT dimer cell Clone #5 (Lot 14BAU); also called hPD1; not shown: beta-galactosidase fragment (ProLink or Enzyme Acceptor)

[4] = target: T3, LAG3-His (66AKO), [VEGF leader]-LAG3_H-[His9G] (human, UniProt P18627 23-450); test: SPR sequential antigen injections on captured TsAb; this antigen injected 1st
T3 construct: Expressed with a VEGF leader
T3 sequence (looked up): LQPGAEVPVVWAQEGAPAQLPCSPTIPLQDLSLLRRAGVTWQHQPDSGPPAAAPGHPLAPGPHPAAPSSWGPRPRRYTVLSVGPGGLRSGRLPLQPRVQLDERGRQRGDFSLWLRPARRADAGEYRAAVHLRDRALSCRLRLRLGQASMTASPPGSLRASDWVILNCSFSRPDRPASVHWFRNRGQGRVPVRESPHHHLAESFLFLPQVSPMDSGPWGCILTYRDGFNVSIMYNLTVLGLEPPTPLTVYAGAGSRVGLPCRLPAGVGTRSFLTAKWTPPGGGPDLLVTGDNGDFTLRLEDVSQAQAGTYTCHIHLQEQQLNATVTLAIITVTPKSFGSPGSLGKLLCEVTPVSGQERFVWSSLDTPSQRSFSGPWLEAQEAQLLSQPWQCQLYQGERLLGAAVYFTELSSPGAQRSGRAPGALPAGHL
Method: (§3) Sample pre-mixes were injected to cover all six sequential combinations of the three antigens. Injection of pre-mixes in appropriate order (e.g., pre-mix 1->4->7, premix 2->6->7, premix 3->5->7) helped to maintain antigen activities from first and second injections and near saturation of the occupied sites in case of notable dissociation. On a Biacore T200, the first two injections were made using the dual inject mode and the third was made using normal injection mode (the difference is extra time between second and third injections). It is possible that antigens themselves could self-associate or interact with one another in the pre-mixes but for simplicity of interpretation, we assumed that to be unlikely or insignificant.
(§4) Each subsequent upward shift in the signal upon premix injection indicates binding of an antigen to an unoccupied site. Typical % BC for a fully occupied site can range from ˜70% to ˜120% due to matrix effects, MW variations (e.g., glycosylation), fast dissociation, nonspecific binding, reagent quality (e.g., aggregation), etc. The % BC indicated in the figures show good overall binding capacity for the three antigens with somewhat higher % BC for the first binder.

[5] = target: T4, Human PD1 (50AFR), [VEGF leader]-Sino-Bio-PD-1_H-[His9G] (human, UniProt Q15116 25-167); test: SPR sequential antigen injections on captured TsAb; this antigen injected 2nd
T4 construct: Expressed with a VEGF leader; also called PD-1-His (50AFR)
Method: as §3, §4

[6] = target: T5, TIGIT-His (87AGX), [SLAM Leader]-TIGIT_H-[His9G] (human, UniProt Q495A1 22-141); test: as above
T5 construct: Expressed with a SLAM leader
T5 sequence (looked up): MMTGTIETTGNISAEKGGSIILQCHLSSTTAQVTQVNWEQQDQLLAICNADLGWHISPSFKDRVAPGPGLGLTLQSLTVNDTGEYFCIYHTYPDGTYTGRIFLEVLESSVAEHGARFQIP
Method: as §3, §4

[7] = target: T4, Human PD1 (50AFR), [VEGF …; test: SPR (Biacore T200 or 4000), antibody captured via anti-human Fc, antigen as analyte
Method: (§5) Binding affinities were measured using a Biacore T200 or Biacore 4000 biosensor (GE Healthcare, Chicago, Ill.). The following running buffer, 10 mM HEPES, 150 mM NaCl, 0.05% v/v Surfactant P20, 3 mM EDTA (GE Healthcare, BR100669, Chicago, Ill.), was used for immobilization, sample dilution and data collection. All experiments were performed at 25° C. Antigen binding to antibodies captured via an anti-human Fc antibody was measured using a Series S Sensor Chip CM5 (GE Healthcare, 29149603, Chicago, Ill.). An anti-human Fc antibody was immobilized on all surfaces of the chip according to the instructions in the Human Antibody Capture Kit (GE Healthcare, BR100839, Chicago, Ill.) and the Amine Coupling Kit (GE Healthcare, BR100633, Chicago, Ill.). […] After the antigen injections the dissociation of the interaction was monitored for 15 minutes. Between binding cycles the antibody and antigen were removed from the chip with a 30 second injection of 3 M MgCl₂.
(§6) The data were processed and fit using Biacore T200 Evaluation Software version 2.0 or Biacore 4000 Evaluation Software version 1.1 (GE Healthcare, Chicago, Ill.). The data were “double referenced” by subtracting the response from a negative control flowcell and subtracting the response from a buffer injection or the average response from two buffer injections. The data were then fit with the ‘1:1 Binding’ model to determine the association rate constant, kₐ (M⁻¹s⁻¹, where “M” equals molar and “s” equals seconds) and the dissociation rate constant, kd (s⁻¹). These rate constants were used to calculate the equilibrium dissociation constant, KD (M)=[…].

[8] = target: T6, human LAG-3 (60AXE) (human, UniProt P18627 23-450, limits assumed); test: as above
T6 construct: Lot 60AXE is not described further
T6 sequence (looked up): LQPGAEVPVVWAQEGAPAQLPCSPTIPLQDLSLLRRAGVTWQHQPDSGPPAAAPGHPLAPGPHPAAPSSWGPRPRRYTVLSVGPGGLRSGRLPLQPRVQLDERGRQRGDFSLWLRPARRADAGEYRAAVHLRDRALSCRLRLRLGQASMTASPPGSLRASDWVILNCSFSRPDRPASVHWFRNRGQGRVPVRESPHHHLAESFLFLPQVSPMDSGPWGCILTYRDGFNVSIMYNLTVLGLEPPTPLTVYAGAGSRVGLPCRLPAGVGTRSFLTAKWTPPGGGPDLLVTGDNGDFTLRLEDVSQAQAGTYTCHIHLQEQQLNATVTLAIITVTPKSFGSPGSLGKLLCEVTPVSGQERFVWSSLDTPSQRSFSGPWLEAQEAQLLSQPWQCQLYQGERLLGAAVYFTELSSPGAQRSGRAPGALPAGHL
Method: as §5, §6

[9] = target: T7, human TIGIT (94AGV) (human, UniProt Q495A1 22-141, limits assumed); test: as above
T7 construct: Lot 94AGV is not described further
T7 sequence (looked up): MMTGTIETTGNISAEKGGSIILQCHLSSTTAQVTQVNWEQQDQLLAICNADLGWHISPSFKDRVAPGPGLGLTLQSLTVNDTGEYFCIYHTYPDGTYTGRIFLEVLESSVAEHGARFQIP
Method: as §5, §6

T1 sequence (Q15116 25-167 limits assumed): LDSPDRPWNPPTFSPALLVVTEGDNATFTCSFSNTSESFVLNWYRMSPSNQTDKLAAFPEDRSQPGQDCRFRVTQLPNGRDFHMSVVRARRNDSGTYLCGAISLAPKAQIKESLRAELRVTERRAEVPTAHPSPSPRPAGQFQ
T4 sequence (Q15116 25-167): as the sequence (Q15116 25-167 limits assumed) above
T2 sequence (Q15116 25-288): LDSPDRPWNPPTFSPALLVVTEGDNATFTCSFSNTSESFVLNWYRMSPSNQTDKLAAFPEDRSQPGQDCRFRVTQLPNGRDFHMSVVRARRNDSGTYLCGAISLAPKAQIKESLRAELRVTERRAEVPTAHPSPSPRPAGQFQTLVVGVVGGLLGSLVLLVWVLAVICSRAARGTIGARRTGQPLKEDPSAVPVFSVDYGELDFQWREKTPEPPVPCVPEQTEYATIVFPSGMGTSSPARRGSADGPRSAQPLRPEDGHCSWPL

B1: Fab001 (humanized 08A Fab with S61N glycosylation site correction) (Fab, V domains shown)
VH: EVQLVQSGAEVKKPGASVKVSCKASGYTFTSYYLYWVRQAPGQGLEWIGGVNPSNGGTNFNEKFKSRVTLTVDTSISTAYMELSRLRSDDTAVYYCTRRDSNYDGGFDYWGQGTTVTVSS
VL: DIVMTQTPLSLSVTPGQPASISCRASKSVSTSGFSYLHWYLQKPGQPPQLLIFLASNLESGVPDRFSGSGSGTDFTLKISRVEAEDVGVYYCQHSWELPLTFGQGTKLEIKR
notes: Fab with IgG4 CH1 and kappa light chain
[1]
  Kd: 0.28 to 0.29 nM

B2: Fab 004 (Fab, V domains shown)
VH: EVQLVQSGAEVKKPGASVKVSCKASGYTFTSYYLYWVRQAPGQGLEWIGGVNPSNGGTNFNEKFKSRVTLTVDTSISTAYMELSRLRSDDTAVYYCTRRLSHYDGGFDYWGQGTTVTVSS
VL: DIVMTQTPLSLSVTPGQPASISCRASKSVSTSGFSYLHWYLQKPGQPPQLLIFLASNLESGVPDRFSGSGSGTDFTLKISRVEAEDVGVYYCQHSWELPLTFGQGTKLEIKR
notes: also called 3G9; H3G9
[2]
  fold improvement in KD over 08A: 2 fold

B3: Humanized x [LAG3_H][TIGIT_H] BsAb (22D2 VH6 C-term 31C6 scFv VL-VH / VL3 Y31W) IgG1 L234A L235A D265S / Kappa (Lot 80BCK) (bispecific antibody)
heavy: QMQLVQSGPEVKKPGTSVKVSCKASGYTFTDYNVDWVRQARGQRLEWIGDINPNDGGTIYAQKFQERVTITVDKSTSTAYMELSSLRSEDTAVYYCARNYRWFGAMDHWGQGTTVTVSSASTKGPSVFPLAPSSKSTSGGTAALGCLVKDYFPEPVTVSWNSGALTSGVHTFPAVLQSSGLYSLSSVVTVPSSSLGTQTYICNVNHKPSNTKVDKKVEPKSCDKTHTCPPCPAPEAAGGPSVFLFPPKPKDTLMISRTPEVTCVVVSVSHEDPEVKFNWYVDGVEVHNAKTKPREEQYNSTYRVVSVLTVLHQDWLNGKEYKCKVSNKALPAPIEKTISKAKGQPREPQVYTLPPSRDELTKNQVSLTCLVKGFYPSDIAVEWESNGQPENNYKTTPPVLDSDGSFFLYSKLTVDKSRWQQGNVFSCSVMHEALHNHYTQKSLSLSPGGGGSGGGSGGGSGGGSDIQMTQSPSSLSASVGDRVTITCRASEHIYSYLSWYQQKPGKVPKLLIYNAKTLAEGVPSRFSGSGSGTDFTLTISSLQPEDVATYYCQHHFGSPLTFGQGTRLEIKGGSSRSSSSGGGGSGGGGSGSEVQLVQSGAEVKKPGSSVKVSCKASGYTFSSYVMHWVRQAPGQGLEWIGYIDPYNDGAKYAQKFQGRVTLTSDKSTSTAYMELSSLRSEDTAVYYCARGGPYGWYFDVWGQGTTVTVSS
light: DIVMTQTPLSLSVTPGQPASISCKASQSLDWEGDSDMNWYLQKPGQPPQLLIYGASNLESGVPDRFSGSGSGTDFTLKISRVEAEDVGVYYCQQSTEDPRTFGGGTKVEIKRTVAAPSVFIFPPSDEQLKSGTASVVCLLNNFYPREAKVQWKVDNALQSGNSQESVTEQDSKDSTYSLSSTLTLSKADYEKHKVYACEVTHQGLSSPVTKSFNRGEC
notes: Anti-LAG3 IgG1 with an anti-TIGIT scFv at the C-terminus of the heavy chain; also called 80BCK (control); Hz x Hu [LAG3]; [TIGIT]; BsAb (Y31W)
[3]
  binding result: no binding

B4: Anti-PD-1/LAG-3/TIGIT trispecific antibody (TsAb) (Lot 83BCN or 51AVW) (other)
heavy 1: EVQLVQSGAEVKKPGASVKVSCKASGYTFTSYYLYWVRQAPGQGLEWIGGVNPSNAGTNFNEKFKSRVTLTVDTSISTAYMELSRLRSDDTAVYYCTRRLSHYDGGFDYWGQGTTVTVSSASTKGPSVFPLAPSSKSTSGGTAALGCEVTDYFPEPVTVSWNSGALTSGVHTFPAVLESSGLYSLLSVVTVPSSSLGTQTYICNVNHKPSNTKVDKKVEPKSCDKTHTCPPCPAPEAAGGPSVFLFPPKPKDTLMISRTPEVTCVVVSVSHEDPEVKFNWYVDGVEVHNAKTKPREEQYNSTYRVVSVLTVLHQDWLNGKEYKCKVSNKALPAPIEKTISKAKGQPREPQVYVYPPSRDELTKNQVSLTCLVKGFYPSDIAVEWESNGQPENNYKTTPPVLDSDGSFALVSKLTVDKSRWQQGNVFSCSVMHEALHNHYTQKSLSLSPGGGGSGGGSGGGSGGGSDIQMTQSPSSLSASVGDRVTITCRASEHIYSYLSWYQQKPGKVPKLLIYNAKTLAEGVPSRFSGSGSGTDFTLTISSLQPEDVATYYCQHHFGSPLTFGQGTRLEIKGGSSRSSSSGGGGSGGGGSGSEVQLVQSGAEVKKPGSSVKVSCKASGYTFSSYVMHWVRQAPGQGLEWIGYIDPYNDGAKYAQKFQGRVTLTSDKSTSTAYMELSSLRSEDTAVYYCARGGPYGWYFDVWGQGTTVTVSS
light 1: DIVMTQTPLSLSVTPGQPASISCRASKSVSTSGFSYLHWYLQKPGQPPQLLIFLSKYRSSGVPDRFSGSGSGTDFTLKISRVEAEDVGVYYCSQAYHLPLTFGQGTKLEIKRTVAAPSVFIFPPSDERLKSGTASVVCLLNNFYPREAKVQWKVDNALQSGNSQESVTEQDSKDSTYSLSSRLTLSKADYEKHKVYACEVTHQGLSSPVTKSFNRGEC
heavy 2: QMQLVQSGPEVKKPGTSVKVSCKASGYTFTDYNVDWVRQARGQRLEWIGDINPNDGGTIYAQKFQERVTITVDKSTSTAYMELSSLRSEDTAVYYCARNYRWFGAMDHWGQGTTVTVSSASTKGPSVFPLAPSSKSTSGGTAALGCLVKDYFPEPVTVSWNSGALTSGVHTFPAVLQSSGLYKLSSVVTVPSSSLGTQTYICNVNHKPSNTKVDKKVEPKSCDKTHTCPPCPAPEAAGGPSVFLFPPKPKDTLMISRTPEVTCVVVSVSHEDPEVKFNWYVDGVEVHNAKTKPREEQYNSTYRVVSVLTVLHQDWLNGKEYKCKVSNKALPAPIEKTISKAKGQPREPQVYVLPPSRDELTKNQVSLLCLVKGFYPSDIAVEWESNGQPENNYLTWPPVLDSDGSFFLYSKLTVDKSRWQQGNVFSCSVMHEALHNHYTQKSLSLSPGGGGSGGGSGGGSGGGSDIQMTQSPSSLSASVGDRVTITCRASEHIYSYLSWYQQKPGKVPKLLIYNAKTLAEGVPSRFSGSGSGTDFTLTISSLQPEDVATYYCQHHFGSPLTFGQGTRLEIKGGSSRSSSSGGGGSGGGGSGSEVQLVQSGAEVKKPGSSVKVSCKASGYTFSSYVMHWVRQAPGQGLEWIGYIDPYNDGAKYAQKFQGRVTLTSDKSTSTAYMELSSLRSEDTAVYYCARGGPYGWYFDVWGQGTTVTVSS
light 2: DIVMTQTPLSLSVTPGQPASISCKASQSLDYEGDSDMNWYLQKPGQPPQLLIYGASNLESGVPDRFSGSGSGTDFTLKISRVEAEDVGVYYCQQSTEDPRTFGGGTKVEIKRTVAAPSVFIFPPSDEELKSGTATVVCLLNNFYPREAKVQWKVDNALQSGNSQESVTEQDSKDSTYSLSSYLELSKADYEKHKVYACEVTHQGLSSPVTKSFNRGEC
notes: Trispecific heterodimeric IgG1 / kappa; It has one site for PD1, one for LAG3 and two for TIGIT; also called Hz x Hu [PD-1]; [TIGIT]; [LAG3]; TsAb; Anti-human PD1/TIGIT/LAG3 TsAb
[4]
  % BC (estimated % binding capacity): 102%
[5]
  % BC (estimated % binding capacity): 74%
[6]
  % BC (estimated % binding capacity): 90%
[7]
  Kd: 0.15 nM
[8]
  Kd: 1.5 pM
[9]
  Kd: 0.64 nM
